# Results reported in the supplement of paper PMC10724198.
# ± gives the standard deviation of the averaged measurements.
# Tested on: Saccharomyces cerevisiae
# Test: protein stability index of tFT-peptide fusion (C-terminal peptide) (PSI (0-1 scale)); higher = more stable (slower turnover)
# Conditions: temperature: 30 C
# Method: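 MPS profiling in S. cerevisiae of the yeast C-terminome library: the last 12 aa of each annotated ORF are fused to the C-terminus of a sfGFP-mCherry timer, after a GGGS linker. Cells are FACS-sorted into 8 mCherry/sfGFP bins and deep-sequenced. PSI runs from 0 (unstable) to 1 (stable); wild type and das1Δ backgrounds, two technical replicates each.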
# [1] = genetic background: das1 deletion
Sequence,protein stability index [1],protein stability index (genetic background: wild type)
QGKVRLWKLNHY [UTP18 C-terminal 12 aa],0.7 ± 0.021,0.616 ± 0.025
EQLEEEFVRQEH [OSW7 C-terminal 12 aa],0.7319 ± 0.00083,0.7301 ± 0.0026
AKEESSDSENET [CDC123 C-terminal 12 aa],0.6497 ± 0.004,0.703 ± 0.091
VTSIMDMPISRE [MVP1 C-terminal 12 aa],0.685 ± 0.019,0.684 ± 0.019
EFLTNSILTRRK [COQ1 C-terminal 12 aa],0.721 ± 0.048,0.651 ± 0.065
AMFNDIWKNANE [UPS3 C-terminal 12 aa],0.7263 ± 0.0062,0.711 ± 0.015
IIDELQKCHMQE [CDC27 C-terminal 12 aa],0.706 ± 0.0081,0.6895 ± 0.0016
VAPKPKTKQEKK [WRS1 C-terminal 12 aa],0.684 ± 0.0071,0.658 ± 0.022
ATPQKRTGPARG [YER088C-A C-terminal 12 aa],0.68 ± 0.018,0.66 ± 0.018
NLKLKFNENIME [DIT2 C-terminal 12 aa],0.695 ± 0.033,0.639 ± 0.0087
EKCSYYFLSRAH [YNL017C C-terminal 12 aa],0.6866 ± 0.0041,0.66 ± 0.023
RLKLDYSLIFPQ [MEI5 C-terminal 12 aa],0.7 ± 0.01,0.72 ± 0.038
FKGFLENIDSYT [AIM22 C-terminal 12 aa],0.714 ± 0.021,0.706 ± 0.0014
NEASKATGASVH [YOP1 C-terminal 12 aa],0.7 ± 0.0098,0.737 ± 0.094
AYSLQEGSVVAI [SIF2 C-terminal 12 aa],0.7139 ± 0.0064,0.696 ± 0.047
DLIKEHSKDIQV [HCH1 C-terminal 12 aa],0.6872 ± 0.0016,0.691 ± 0.012
QYKNKLAKNVVL [ARB1 C-terminal 12 aa],0.675 ± 0.012,0.6797 ± 0.0058
RRVKSLKTSKKH [PAL2 C-terminal 12 aa],0.72 ± 0.017,0.686 ± 0.0093
YAVSELEGPMLD [CSC1 C-terminal 12 aa],0.7 ± 0.016,0.6479 ± 0.0011
GAAVGGALAFLI [DDR2 C-terminal 12 aa],0.702 ± 0.02,0.677 ± 0.0076
FVKDEIHKDILD [PEX21 C-terminal 12 aa],0.7 ± 0.017,0.685 ± 0.011

Sequence,protein stability index [1],protein stability index (genetic background: wild type)
WKQGGGDFRTKK [RBA50 C-terminal 12 aa],0.709 ± 0.022,0.667 ± 0.033
EEQRNHLKDLYG [SLU7 C-terminal 12 aa],0.6968 ± 0.0037,0.702 ± 0.011
ETNFWTAALEYE [THI20 C-terminal 12 aa],0.723 ± 0.011,0.759 ± 0.034
CGKCHSVYKVNA [RPS31 C-terminal 12 aa],0.70314 ± 0.00059,0.624 ± 0.041
CGLDGKIVIYTI [ARC40 C-terminal 12 aa],0.6819 ± 0.0035,0.6704 ± 0.0027
TLEDLGAKVSLE [MNP1 C-terminal 12 aa],0.696 ± 0.011,0.711 ± 0.031
FVKVIDYTSNGW [PBY1 C-terminal 12 aa],0.676 ± 0.0086,0.685 ± 0.015
NGPVNNNAHLVA [FAT3 C-terminal 12 aa],0.689 ± 0.0098,0.709 ± 0.049
STKILETSANYL [RVB1 C-terminal 12 aa],0.69 ± 0.019,0.679 ± 0.047
NMEKFVRKCWKD [MKK1 C-terminal 12 aa],0.691 ± 0.059,0.73796 ± 0.00058
KGLQTVVVEEDA [RPL31A C-terminal 12 aa],0.6888 ± 0.0012,0.683 ± 0.0082
NLLLSGSLYQKN [BUD28 C-terminal 12 aa],0.751 ± 0.011,0.672 ± 0.036
EANFWTAALEYE [THI21 C-terminal 12 aa],0.7334 ± 0.0016,0.6857 ± 0.003
TYSTLINIDVSL [NIC96 C-terminal 12 aa],0.702 ± 0.059,0.688 ± 0.046
VAEKIPENETTH [ISW1 C-terminal 12 aa],0.6915 ± 0.0016,0.679 ± 0.031
SLIPRFDNLLSK [GGC1 C-terminal 12 aa],0.7062 ± 0.0052,0.732 ± 0.015
ALSADGIYTIAN [PAU5 C-terminal 12 aa],0.71 ± 0.0096,0.6966 ± 0.0031
ILDMFAKRWILS [IZH3 C-terminal 12 aa],0.697 ± 0.015,0.552 ± 0.043
EHRMLKLILNSG [NTO1 C-terminal 12 aa],0.694 ± 0.017,0.644 ± 0.013
KKRDPITGEVFE [ERG5 C-terminal 12 aa],0.6849 ± 0.0021,0.667 ± 0.016
SQGNVYLPGVAW [NOC4 C-terminal 12 aa],0.707 ± 0.009,0.738 ± 0.081

Sequence,protein stability index [1],protein stability index (genetic background: wild type)
VGFCGLYYYFRK [YPR195C C-terminal 12 aa],0.647 ± 0.018,0.648 ± 0.015
KKKSKSSKKVKV [ESF1 C-terminal 12 aa],0.707 ± 0.017,0.653 ± 0.0087
PPVPEVPQEYTQ [TCB3 C-terminal 12 aa],0.722 ± 0.014,0.709 ± 0.041
MGCIKGTVKTKY [ABZ2 C-terminal 12 aa],0.668 ± 0.039,0.756 ± 0.14
SIFSYCIIYFIS [YDR524C-A C-terminal 12 aa],0.222 ± 0.013,0.111 ± 0.02
YWRKQYPDADLP [YAR028W C-terminal 12 aa],0.714 ± 0.015,0.695 ± 0.033
RQMTSSFFLVFA [YDR118W-A C-terminal 12 aa],0.51187 ± 0.00022,0.508 ± 0.017
DAEGQENAASSE [RIM1 C-terminal 12 aa],0.67571 ± 0.00047,0.67 ± 0.0069
YFKETLYKLANE [HIS5 C-terminal 12 aa],0.687 ± 0.023,0.705 ± 0.085
SLNLILISMTFI [YCR097W-A C-terminal 12 aa],0.429 ± 0.0075,0.449 ± 0.0049
ENAEKQRTLKKN [RIA1 C-terminal 12 aa],0.6927 ± 0.00075,0.71 ± 0.045
FYSVFALMVIFV [YIP1 C-terminal 12 aa],0.178 ± 0.013,0.122 ± 0.003
PIICASVTFLPT [YAL056C-A C-terminal 12 aa],0.6572 ± 0.00082,0.629 ± 0.026
PGVMLGRWKVTA [VPS61 C-terminal 12 aa],0.612 ± 0.013,0.356 ± 0.0069
PKALFQSRDQEH [SIC1 C-terminal 12 aa],0.724 ± 0.022,0.702 ± 0.014
FAFVVVKQEFIH [BYE1 C-terminal 12 aa],0.521 ± 0.015,0.519 ± 0.0072
DRDGCVNAVLLV [NSA2 C-terminal 12 aa],0.701 ± 0.012,0.6768 ± 0.0054
DNVEQRVLKQYM [EMC3 C-terminal 12 aa],0.6864 ± 0.0062,0.651 ± 0.0092
PDYKSNTQILVL [YOL155W-A C-terminal 12 aa],0.56446 ± 0.00018,0.584 ± 0.029
TNQASPHHIFRG [ORA1 C-terminal 12 aa],0.702 ± 0.016,0.752 ± 0.038
GAQPHLYIPDED [USA1 C-terminal 12 aa],0.6896 ± 0.0026,0.6982 ± 0.003

Sequence,protein stability index [1],protein stability index (genetic background: wild type)
YSLYRSRSKEAF [SAP190 C-terminal 12 aa],0.714 ± 0.048,0.692 ± 0.0071
EIKEMLVTLINK [SRL2 C-terminal 12 aa],0.6725 ± 0.002,0.652 ± 0.028
FKLHNETRCRNR [VPS71 C-terminal 12 aa],0.68 ± 0.017,0.677 ± 0.007
SFLFGLYLLLHP [SPR2 C-terminal 12 aa],0.4995 ± 0.0033,0.484 ± 0.014
YKKVQWAKVLEQ [SFG1 C-terminal 12 aa],0.709 ± 0.022,0.7255 ± 0.0061
AAMLTSENAREI [RRP45 C-terminal 12 aa],0.707 ± 0.01,0.676 ± 0.035
NVAAAEASKKGN [YET1 C-terminal 12 aa],0.728 ± 0.033,0.685 ± 0.053
AARADRGANFRD [SPT16 C-terminal 12 aa],0.677 ± 0.022,0.726 ± 0.012
FTMSLAHCLMFS [YJL169W C-terminal 12 aa],0.636 ± 0.016,0.668 ± 0.066
QGKAFYDRIKDL [RFS1 C-terminal 12 aa],0.683 ± 0.013,0.255 ± 0.025
IIDELEQIALQQ [BRE2 C-terminal 12 aa],0.69735 ± 0.00015,0.748 ± 0.04
VWNTFYKLGKRV [TMT1 C-terminal 12 aa],0.7048 ± 0.0066,0.6583 ± 0.0029
SQAIPKKKKVLE [MEK1 C-terminal 12 aa],0.6937 ± 0.0011,0.6887 ± 0.0063
VSNNLIIDEETF [BIM1 C-terminal 12 aa],0.7174 ± 0.0056,0.7214 ± 0.0042
RYAKIHEKHVSA [ASN2 C-terminal 12 aa],0.7157 ± 0.0026,0.7183 ± 0.0066
RDLLRDDKVALI [SLD5 C-terminal 12 aa],0.715 ± 0.023,0.6977 ± 0.0027
KLENESLPNLSG [TRI1 C-terminal 12 aa],0.691 ± 0.013,0.685 ± 0.016
FRPDEMNIVTKF [PRM15 C-terminal 12 aa],0.68 ± 0.022,0.753 ± 0.024
FKVASIANAQVR [ARC1 C-terminal 12 aa],0.689 ± 0.0093,0.696 ± 0.027
